Experiments:
[1] = system: T1, cyclic peptide P2, c(rLSKDK)
T1 sequence: RLSKDK

[2] = system: T2, cyclic peptide P3, c(RlSKDK)
T2 sequence: RLSKDK

[3] = system: T3, cyclic peptide P1, c(RLsKDK), cyclo(Arg-Leu-{β-Ser}-Lys-Asp-Lys)
T3 sequence: RLSKDK

purified recombinant ADAM8
ADAM8 proteolytic activity, fluorogenic CD23 peptide, peptides at 100 nM [1]: Cyclic peptides P2 and P3 showed inhibition of ADAM8 proteolytic activity
ADAM8 proteolytic activity, fluorogenic CD23 peptide, peptides at 100 nM [2]: Cyclic peptides P2 and P3 showed inhibition of ADAM8 proteolytic activity
ADAM8 proteolytic activity, fluorogenic CD23 peptide, peptides at 100 nM [3]: cyclic peptide P1 showed the most marked inhibition

From US20170107258
